Measurements taken from US20190046655A1 (ARBELE, published 2019).
Where a chain is given by its changes, count along the chain named. One block for each binder: values may come before it.

Target: T1, cadherin-17 (CDH17), ELISA antigen (UniProt Q12864 23-787, limits assumed)
T1 construct: also called liver-intestine cadherin
Test: ELISA

Kd: 11.9 nM
B1: Lic3 scFv (scFv, V domains shown)
VH: EVQLVESGGGLVKPGGSLKLSCAASGFSFSDYYMYWVRQAPEKRLEWVASISFDGTYTYYTDRVKGRFTISRDNAKNNLYLQMSSLKSEDTAMYYCARDRPAWFPYWGQGTLVTVSA
VL: DVLMTQIPLSLTVSLGDQASISCRSSQSIVHSNGNTYLEWYLQRPGQSPKLLIYKVSNRFSGVPDRFSGSGSGTDFTLKISRVEAEDLGVYYCFQGSHVPLTFGAGTKLELK
notes: Tested as a single-chain Fv; also called scFv lic 3; mouse CDH17 antibody Lic3 scFv

Kd: 22.1 nM
B2: Lic5 scFv (scFv, V domains shown)
VH: B1 VH with V5E, S21P, F27S, Y32F, A40T
VL: DIVLTQTTLSLNVSLGDQASISCRSSQSIVHSNGNTYLEWYLQRPGQSPKLLIYKVSNRFSGVPDRFSGSGSGTDFTLKISRVEAEDLGVYYCFQGSHVPLTFGAGTKLELKR
notes: Tested as a single-chain Fv; also called scFv lic5; mouse CDH17 antibody Lic5 scFv
